Measurements reported in patent publication US20240173442A1 (Hoffmann-La Roche, published 2024).

T1: carcinoembryonic antigen (CEA) (human, UniProt P06731 35-685)
T1 construct: whole, on cells; also called CEACAM5; Carcinoembryonic antigen-related cell adhesion molecule 5
T1 sequence (looked up): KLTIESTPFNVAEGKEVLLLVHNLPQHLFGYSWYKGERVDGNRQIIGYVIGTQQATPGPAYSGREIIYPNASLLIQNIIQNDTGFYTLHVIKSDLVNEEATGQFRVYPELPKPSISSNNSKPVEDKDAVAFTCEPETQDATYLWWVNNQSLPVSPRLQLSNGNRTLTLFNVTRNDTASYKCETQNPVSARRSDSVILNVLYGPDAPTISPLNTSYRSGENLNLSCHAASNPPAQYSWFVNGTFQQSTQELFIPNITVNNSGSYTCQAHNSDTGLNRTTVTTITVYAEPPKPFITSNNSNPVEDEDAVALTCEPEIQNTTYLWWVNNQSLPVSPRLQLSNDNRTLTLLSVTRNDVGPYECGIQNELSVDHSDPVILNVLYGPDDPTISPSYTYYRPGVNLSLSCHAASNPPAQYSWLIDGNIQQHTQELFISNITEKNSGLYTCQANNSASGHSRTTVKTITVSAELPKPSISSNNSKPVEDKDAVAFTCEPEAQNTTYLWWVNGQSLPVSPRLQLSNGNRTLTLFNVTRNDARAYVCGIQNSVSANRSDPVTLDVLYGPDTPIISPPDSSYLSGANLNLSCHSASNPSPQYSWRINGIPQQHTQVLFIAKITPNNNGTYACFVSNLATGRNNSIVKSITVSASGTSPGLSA

B1: P1AF0712 (CEA-split-DOTA-VL, CH1A1A) (antibody, human IgG1, kappa, L234A L235A)
heavy 1: not shown
heavy 2: QVQLVQSGAEVKKPGASVKVSCKASGYTFTEFGMNWVRQAPGQGLEWMGWINTKTGEATYVEEFKGRVTFTTDTSTSTAYMELRSLRSDDTAVYYCARWDFAYYVEAMDYWGQGTTVTVSSASTKGPSVFPLAPSSKSTSGGTAALGCLVKDYFPEPVTVSWNSGALTSGVHTFPAVLQSSGLYSLSSVVTVPSSSLGTQTYICNVNHKPSNTKVDKKVEPKSCDKTHTCPPCPAPEAAGGPSVFLFPPKPKDTLMISRTPEVTCVVVDVSHEDPEVKFNWYVDGVEVHNAKTKPREEQYNSTYRVVSVLTVLHQDWLNGKEYKCKVSNKALGAPIEKTISKAKGQPREPQVCTLPPSRDELTKNQVSLSCAVKGFYPSDIAVEWESNGQPENNYKTTPPVLDSDGSFFLVSKLTVDKSRWQQGNVFSCSVMHEALHNHYTQKSLSLSPGGGGGSGGGGSGGGGSGGGGSQAVVIQESALTTPPGETVTLTCGSSTGAVTASNYANWVQEKPDHLFTGLIGGHNNRPPGVPARFSGSLIGDKAALTIAGTQTEDEAIYFCALWYSDHWVIGGGTKLTVL
light: DIQMTQSPSSLSASVGDRVTITCKASAAVGTYVAWYQQKPGKAPKLLIYSASYRKRGVPSRFSGSGSGTDFTLTISSLQPEDFATYYCHQYYTYPLFTFGQGTKLEIKRTVAAPSVFIFPPSDEQLKSGTASVVCLLNNFYPREAKVQWKVDNALQSGNSQESVTEQDSKDSTYSLSSTLTLSKADYEKHKVYACEVTHQGLSSPVTKSFNRGEC
notes: also called CEA specific SPLIT antibody; P6_A
B2: P1AF0713 (CEA-split-DOTA-VH-AST, CH1A1A) (antibody, human IgG1, kappa, L234A L235A)
heavy 1: QVQLVQSGAEVKKPGASVKVSCKASGYTFTEFGMNWVRQAPGQGLEWMGWINTKTGEATYVEEFKGRVTFTTDTSTSTAYMELRSLRSDDTAVYYCARWDFAYYVEAMDYWGQGTTVTVSSASTKGPSVFPLAPSSKSTSGGTAALGCLVKDYFPEPVTVSWNSGALTSGVHTFPAVLQSSGLYSLSSVVTVPSSSLGTQTYICNVNHKPSNTKVDKKVEPKSCDKTHTCPPCPAPEAAGGPSVFLFPPKPKDTLMISRTPEVTCVVVDVSHEDPEVKFNWYVDGVEVHNAKTKPREEQYNSTYRVVSVLTVLHQDWLNGKEYKCKVSNKALGAPIEKTISKAKGQPREPQVCTLPPSRDELTKNQVSLSCAVKGFYPSDIAVEWESNGQPENNYKTTPPVLDSDGSFFLVSKLTVDKSRWQQGNVFSCSVMHEALHNHYTQKSLSLSPG
heavy 2: not shown
light: B1 light
notes: also called CEA specific SPLIT antibody; P6_B

Biological target: T1, carcinoembryonic antigen (CEA)
Experiment: FACS on MKN-45 cells, detection with anti-huIgG(H+L)-Alexa488
Experimental: MKN-45 cells were detached from the culture bottle using Trypsin and were counted using a Casy cell counter. After pelleting at 4° C., 300 g the cells were resuspended in FACS Buffer (2.5% FCS in PBS), adjusted to 2.0E+06 cells/mL dispensed to 96-well PP V-bottom-Platte (25 μL/well=5.0E+04Zellen/well).
The CEA specific SPLIT antibodies (P1AF0712 or P1AF0713 respectively) were adjusted to 40 μg/mL in FACS buffer, resulting in a final concentration of 10 μg/mL. Both antibodies were added to the cells either separated followed by buffer or combined and incubated at 4° C. for 1 h. The cells were then washed twice in FACS buffer. After washing, the cells were resuspended in 50 μL FACS-buffer containing secondary antibody (<huIgG(H+L)>-Alexa488, c=10 μg/mL) and incubated 1h at 4° C. The cells were then washed twice in FACS buffer and resuspended in 70 μl/well FACS buffer for measurement using a FACS Canto (BD, Pharmingen).

Row | Binder | EC50
1 | B1 | 2.7 µg/mL
2 | B2 | 2.3 µg/mL
